Measurements reported in patent publication US20240336672A1.

What was measured:
Conditions in all cases: remark: other sources report otherwise
[1] = target: T1, SARS-CoV-2 kappa variant B.1.617.1/3 RBD domain (SARS-CoV-2); assay: ELISA; parameters: unit not given beside the values
[2] = target: SARS-CoV-2 delta plus variant RBD (SARS-CoV-2); assay: ELISA; parameters: unit not given beside the values
[3] = target: T2, SARS-CoV-2 delta variant B.1.617.2/3 RBD domain (SARS-CoV-2); assay: ELISA; parameters: unit not given beside the values
[4] = target: SARS-CoV-2 delta plus variant RBD (SARS-CoV-2); assay: ELISA
[5] = target: T3, SARS-CoV-2 omicron variant B.1.1.529 Spike ectodomain (tri-S, HexaPro) (SARS-CoV-2), P0DTC2; assay: tri-S/ACE2 blocking ELISA [B]
[6] = target: T1, SARS-CoV-2 kappa variant B.1.617.1/3 …; assay: RBD-ACE2 competition ELISA; parameters: unit not given beside the values
[7] = target: SARS-CoV-2 delta plus variant RBD (SARS-CoV-2); assay: RBD-ACE2 competition ELISA; parameters: unit not given beside the values
[8] = target: T2, SARS-CoV-2 delta variant B.1.617.2/3 …; assay: RBD-ACE2 competition ELISA; parameters: unit not given beside the values
[9] = target: SARS-CoV-2 omicron variant B.1.1.529 RBD domain (SARS-CoV-2); assay: ELISA; parameters: unit not given beside the values
[10] = target: T3, SARS-CoV-2 omicron variant B.1.1.529 …; assay: ELISA; parameters: unit not given beside the values
[11] = target: SARS-CoV-2 delta plus variant RBD (SARS-CoV-2); assay: RBD/ACE2 blocking ELISA
[12] = target: T2, SARS-CoV-2 delta variant B.1.617.2/3 …; assay: RBD/ACE2 blocking ELISA
[13] = target: T1, SARS-CoV-2 kappa variant B.1.617.1/3 …; assay: ELISA; parameters: unit not given beside the values; remark: listed apart in the source
[14] = target: SARS-CoV-2 delta plus variant RBD (SARS-CoV-2); assay: ELISA; parameters: unit not given beside the values; remark: listed apart in the source
[15] = target: T2, SARS-CoV-2 delta variant B.1.617.2/3 …; assay: ELISA; parameters: unit not given beside the values; remark: listed apart in the source
[16] = target: T1, SARS-CoV-2 kappa variant B.1.617.1/3 …; assay: RBD/ACE2 blocking ELISA

| Binder | AUC (RBD bind.) [1] | AUC (RBD bind.) [2] | AUC (RBD bind.) [3] | EC50 (read off the curve) [4] [µg/mL] | AUC of blocking [5] | AUC (RBD block.) [6] | AUC (RBD block.) [7] | AUC (RBD block.) [8] | AUC [9] | AUC [10] | % binding inhibition [11] [%] | % binding inhibition [12] [%] | AUC [13] | AUC [14] | AUC [15] | % binding inhibition [16] [%] |
| --- | --- | --- | --- | --- | --- | --- | --- | --- | --- | --- | --- | --- | --- | --- | --- | --- |
| Cv2.3235 (recombinant human IgG1) (antibody) heavy: EVQLVESGGGLIQPGGSLRLSCAASGFTVSRNYMSWVRQAPGKGLEWVSVIYSGGSTFYADSVKGRFTISRDNSKNTLYLQMNSLRAEDTAVYYCARDGDYYGMDVWGQGTTVTVSSASTKGPSVFPLAPSSKSTSGGTAALGCLVKDYFPEPVTVSWNSGALTSGVHTFPAVLQSSGLYSLSSVVTVPSSSLGTQTYICNVNHKPSNTKVDKKVEPKSCDKTHTCPPCPAPELLGGPSVFLFPPKPKDTLMISRTPEVTCVVVDVSHEDPEVKFNWYVDGVEVHNAKTKPREEQYNSTYRVVSVLTVLHQDWLNGKEYKCKVSNKALPAPIEKTISKAKQPREPQVYTLPPSRDELTKNQVSLTCLVKGFYPSDIAVEWESNGQPENNYKTTPPVLDSDGSFFLYSKLTVDKSRWQQGNVFSCSVMHEALHNHYTQKSLSLSPGK light: DIQMTQSPSFLSASVGDRVTITCRASQGISSFLAWYQQKPGKAPKLLIYGASTLQSGVTSRFSGSGSGTEFTLTISSLQPEDFATYYCQRLDSYPPITFGQGTRLEIKRTVAAPSVFIFPPSDEQLKSGTASVVCLLNNFYPREAKVQWKVDNALQSGNSQESVTEQDSKDSTYSLSSTLTLSKADYEKHKVYACEVTHQGLSSPVTKSFNRGEC | 12 | 6 | 13 | 0.3 | 0 | 111 | 9 | 71 | 1 | 1 |  |  |  |  |  |  |
| COV2-2130 (antibody, V domains shown) VH: EVQLVESGGGLVKPGGSLRLSCAASGFTFRDVWMSWVRQAPGKGLEWVGRIKSKIDGGTTDYAAPVKGRFTISRDDSKNTLYLQMNSLKTEDTAVYYCTTAGSYYYDTVGPGLPEGKFDYWGQGTLVTVSS VL: not shown |  |  |  |  |  |  |  |  |  |  | 88 | 77 | 4 | 3 | 3 |  |
| ADG-2 (antibody, V domains shown) VH: EVQLVESGGGLVKPGGSLRLSCAASGFTFSSYYMNWVRQAPGKGLEWVSSISEDGYSTYYPDSLKGRFTISRDSAKNSLYLQMNSLRADDTAVYYCARDFSGHTAWAGTGFEYWGQGTLVTVSS VL: QSVLTQPPSVSGAPGQRITISCTGSSSNIGAGYDVHWYQQLPGTAPKLLIYGSSSRNSGVPDRFSGSKSGTSASLAITGLQAEDEADYYCQSYDSSLSVLYTFGTGTKVTVL |  |  |  |  |  |  |  |  |  |  | 80 | 96 | 4 | 3 | 3 | 95 |
| Cv2.1353 (recombinant human IgG1) (antibody) heavy: EVQLVESGGGLVQPGGSLRLSCAASGVTVSSNYMNWVRQAPGKGLEWVSVIYSGGSTFYADSVKGRFIISRDNSKNTLYLQMNSLKTEDTAVYYCARDLGPMGFDIWGQGTMVTVSSASTKGPSVFPLAPSSKSTSGGTAALGCLVKDYFPEPVTVSWNSGALTSGVHTFPAVLQSSGLYSLSSVVTVPSSSLGTQTYICNVNHKPSNTKVDKKVEPKSCDKTHTCPPCPAPELLGGPSVFLFPPKPKDTLMISRTPEVTCVVVDVSHEDPEVKFNWYVDGVEVHNAKTKPREEQYNSTYRVVSVLTVLHQDWLNGKEYKCKVSNKALPAPIEKTISKAKQPREPQVYTLPPSRDELTKNQVSLTCLVKGFYPSDIAVEWESNGQPENNYKTTPPVLDSDGSFFLYSKLTVDKSRWQQGNVFSCSVMHEALHNHYTQKSLSLSPGK light: DIQMTQSPSFLSASVGDRVTITCRASQGISSYLAWYQQKPGKAPKLLIYAASTLQSGVPSRFSGSGSGTEFTLTISSLQPEDFATYYCQQLNSDPPVTFGPGTKVDIKRTVAAPSVFIFPPSDEQLKSGTASVVCLLNNFYPREAKVQWKVDNALQSGNSQESVTEQDSKDSTYSLSSTLTLSKADYEKHKVYACEVTHQGLSSPVTKSFNRGEC | 13 | 13 | 13 |  | 4 | 112 | 142 | 97 | 3 | 7 |  |  |  |  |  |  |
